In patent US20030073629:

Target: XIAP, P98170
Sequence (P98170 whole entry): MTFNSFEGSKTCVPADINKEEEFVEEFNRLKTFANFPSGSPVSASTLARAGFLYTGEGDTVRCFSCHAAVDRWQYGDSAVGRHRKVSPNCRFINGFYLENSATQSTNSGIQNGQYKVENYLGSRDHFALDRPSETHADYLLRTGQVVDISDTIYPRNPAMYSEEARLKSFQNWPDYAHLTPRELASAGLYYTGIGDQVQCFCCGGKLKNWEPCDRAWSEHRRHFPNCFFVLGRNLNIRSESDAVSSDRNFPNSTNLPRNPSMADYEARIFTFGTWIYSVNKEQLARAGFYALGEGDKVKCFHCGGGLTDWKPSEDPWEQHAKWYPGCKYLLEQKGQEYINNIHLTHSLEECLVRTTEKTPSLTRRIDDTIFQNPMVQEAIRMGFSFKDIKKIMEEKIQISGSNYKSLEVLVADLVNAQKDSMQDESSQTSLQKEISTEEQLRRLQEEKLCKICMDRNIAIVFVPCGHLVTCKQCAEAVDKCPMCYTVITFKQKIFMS

| Protein | procaspase-3 activation in XIAP-containing S100 extracts stimulated with cytochrome c and dATP |
| --- | --- |
| C-terminal His6-tagged recombinant wild type mature Omi (Omi lacking the first 133 residues) (protein) AVPSPPPASPRSQYNFIADVVEKTAPAVVYIEILDRHPFLGREVPISNGSGFVVAADGLIVTNAHVVADRRRVRVRLLSGDTYEAVVTAVDPVADIATLRIQTKEPLPTLPLGRSADVRQGEFVVAMGSPFALQNTITSGIVSSAQRPARDLGLPQTNVEYIQTDAAIDFGNSGGPLVNLDGEVIGVNTMKVTAGISFAIPSDRLREFLHRGEKKNSSSGISGSQRRYIGVMMLTLSPSILAELQLREPSFPDVQHGVLIHKVILGSPAHRAGLRPGDVILAIGEQMVQNAEDVYEAVRTQSQLAVQIRRGRETLTLYVTPEVTEHHHHHH | mature WT Omi or the S306A mutant were able to promote procaspase-3 activation in the XIAP-containing S100 extracts almost to the same extent as Smac |
| Omi-S306A (C-terminal His6-tagged recombinant mature Omi, active site Ser306 to Ala) (protein) AVPSPPPASPRSQYNFIADVVEKTAPAVVYIEILDRHPFLGREVPISNGSGFVVAADGLIVTNAHVVADRRRVRVRLLSGDTYEAVVTAVDPVADIATLRIQTKEPLPTLPLGRSADVRQGEFVVAMGSPFALQNTITSGIVSSAQRPARDLGLPQTNVEYIQTDAAIDFGNAGGPLVNLDGEVIGVNTMKVTAGISFAIPSDRLREFLHRGEKKNSSSGISGSQRRYIGVMMLTLSPSILAELQLREPSFPDVQHGVLIHKVILGSPAHRAGLRPGDVILAIGEQMVQNAEDVYEAVRTQSQLAVQIRRGRETLTLYVTPEVTEHHHHHH | mature WT Omi or the S306A mutant were able to promote procaspase-3 activation in the XIAP-containing S100 extracts almost to the same extent as Smac |
| Omi-deltaAVPS (C-terminal His6-tagged recombinant mature Omi with the AVPS motif deleted) (protein) PPPASPRSQYNFIADVVEKTAPAVVYIEILDRHPFLGREVPISNGSGFVVAADGLIVTNAHVVADRRRVRVRLLSGDTYEAVVTAVDPVADIATLRIQTKEPLPTLPLGRSADVRQGEFVVAMGSPFALQNTITSGIVSSAQRPARDLGLPQTNVEYIQTDAAIDFGNSGGPLVNLDGEVIGVNTMKVTAGISFAIPSDRLREFLHRGEKKNSSSGISGSQRRYIGVMMLTLSPSILAELQLREPSFPDVQHGVLIHKVILGSPAHRAGLRPGDVILAIGEQMVQNAEDVYEAVRTQSQLAVQIRRGRETLTLYVTPEVTEHHHHHH | deletion of this motif abolished its caspase-promoting activity |
